Results reported in PMC4592220, “Geminivirus Activates [sequence] LEAVES 2 to Accelerate Cytoplasmic DCP2-Mediated mRNA Turnover and Weakens RNA Silencing in Arabidopsis” (PLoS Pathogens, 2015).

T1: DCP2, recombinant (Arabidopsis thaliana, UniProt Q8GW31 1-373)
T1 construct: mRNA decapping enzyme DCP2, Arabidopsis; full-length cDNA
T1 sequence: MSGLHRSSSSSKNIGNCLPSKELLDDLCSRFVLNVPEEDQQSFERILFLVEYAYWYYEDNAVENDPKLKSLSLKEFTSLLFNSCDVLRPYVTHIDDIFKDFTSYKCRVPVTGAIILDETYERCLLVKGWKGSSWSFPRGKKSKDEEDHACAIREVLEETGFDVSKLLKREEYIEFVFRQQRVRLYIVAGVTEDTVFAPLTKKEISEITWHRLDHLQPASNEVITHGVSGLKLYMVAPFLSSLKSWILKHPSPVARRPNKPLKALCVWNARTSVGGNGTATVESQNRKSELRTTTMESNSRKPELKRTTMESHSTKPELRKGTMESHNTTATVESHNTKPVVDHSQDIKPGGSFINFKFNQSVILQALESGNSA

B1: His-AS2 (… LEAVES 2) (natural protein)
chain: MASSSTNSPCAACKFLRRKCQPECVFAPYFPPDQPQKFANVHKVFGASNVTKLLNELHPSQREDAVNSLAYEADMRLRDPVYGCVGVISLLQHQLRQLQIDLSCAKSELSKYQSLGILAATHQSLGINLLAGAADGTATAVRDHYHHHQFFPREQMFGGLDVPAGNNYDGGILAIGQITQFQQPRAAAGDDGRRTVDPS
notes: full-length cDNA; The methods say the yeast SUMO tag was used to improve AS2 solubility; also called WT AS2
B2: GST-AS2 (… LEAVES 2) (natural protein)
chain: B1 chain
notes: full-length cDNA

What was measured:
[1] = molecular target: B2; assay: pull-down; 2 ug of GST/MBP/His/His-SUMO fusion proteins; binding buffer 50 mM Tris-HCl pH 7.5, 100 mM NaCl, 0.25% Triton X-100, 35 mM beta-mercaptoethanol, 2 h at 4 C, then glutathione sepharose 4B overnight; 6 washes; Western blot with anti-His, anti-GST or anti-MBP; details: both partners purified
[2] = molecular target: T1, DCP2, recombinant; assay: as above; details: both partners purified

Binder | binding result [1] | binding result [2]
B1 | binds | –
B2 | – | binds
